Test in all cases: EC50 of free RNA motif oligo competing protein binding to immobilised probe
The target of one series is T1, ZRANB2 (UniProt O95218).
T1 sequence: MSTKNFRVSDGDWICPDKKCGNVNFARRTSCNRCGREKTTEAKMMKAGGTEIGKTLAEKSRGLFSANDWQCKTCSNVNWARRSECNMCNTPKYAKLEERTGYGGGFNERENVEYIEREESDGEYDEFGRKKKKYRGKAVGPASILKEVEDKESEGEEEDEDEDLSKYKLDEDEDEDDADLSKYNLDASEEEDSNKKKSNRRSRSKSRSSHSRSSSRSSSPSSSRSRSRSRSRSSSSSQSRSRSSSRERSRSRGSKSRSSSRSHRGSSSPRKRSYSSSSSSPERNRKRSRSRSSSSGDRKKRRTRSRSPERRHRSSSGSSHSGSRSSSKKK
Put shortly: (§1)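 HEK293-FT lysate (2.5 mg protein/well) was treated with free RNA oligos (0 nM to 30 μM) for 1 h at 4°C, then with the same oligos on NHS-Sepharose beads for 30 min at 4°C. Bound proteins were quantified by label-free LC-MS/MS relative to the control. EC50 came from a four-parameter log-logistic fit, and Kd is EC50 times a protein-dependent depletion factor.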

Another series addresses CPSF4 (UniProt O95639). Put shortly: as §1
A further series has as its target MRPL53 (UniProt Q96EL3). Put shortly: as §1
Another series concerns the target T2, YTHDC2 (UniProt Q9H6S0).
T2 sequence: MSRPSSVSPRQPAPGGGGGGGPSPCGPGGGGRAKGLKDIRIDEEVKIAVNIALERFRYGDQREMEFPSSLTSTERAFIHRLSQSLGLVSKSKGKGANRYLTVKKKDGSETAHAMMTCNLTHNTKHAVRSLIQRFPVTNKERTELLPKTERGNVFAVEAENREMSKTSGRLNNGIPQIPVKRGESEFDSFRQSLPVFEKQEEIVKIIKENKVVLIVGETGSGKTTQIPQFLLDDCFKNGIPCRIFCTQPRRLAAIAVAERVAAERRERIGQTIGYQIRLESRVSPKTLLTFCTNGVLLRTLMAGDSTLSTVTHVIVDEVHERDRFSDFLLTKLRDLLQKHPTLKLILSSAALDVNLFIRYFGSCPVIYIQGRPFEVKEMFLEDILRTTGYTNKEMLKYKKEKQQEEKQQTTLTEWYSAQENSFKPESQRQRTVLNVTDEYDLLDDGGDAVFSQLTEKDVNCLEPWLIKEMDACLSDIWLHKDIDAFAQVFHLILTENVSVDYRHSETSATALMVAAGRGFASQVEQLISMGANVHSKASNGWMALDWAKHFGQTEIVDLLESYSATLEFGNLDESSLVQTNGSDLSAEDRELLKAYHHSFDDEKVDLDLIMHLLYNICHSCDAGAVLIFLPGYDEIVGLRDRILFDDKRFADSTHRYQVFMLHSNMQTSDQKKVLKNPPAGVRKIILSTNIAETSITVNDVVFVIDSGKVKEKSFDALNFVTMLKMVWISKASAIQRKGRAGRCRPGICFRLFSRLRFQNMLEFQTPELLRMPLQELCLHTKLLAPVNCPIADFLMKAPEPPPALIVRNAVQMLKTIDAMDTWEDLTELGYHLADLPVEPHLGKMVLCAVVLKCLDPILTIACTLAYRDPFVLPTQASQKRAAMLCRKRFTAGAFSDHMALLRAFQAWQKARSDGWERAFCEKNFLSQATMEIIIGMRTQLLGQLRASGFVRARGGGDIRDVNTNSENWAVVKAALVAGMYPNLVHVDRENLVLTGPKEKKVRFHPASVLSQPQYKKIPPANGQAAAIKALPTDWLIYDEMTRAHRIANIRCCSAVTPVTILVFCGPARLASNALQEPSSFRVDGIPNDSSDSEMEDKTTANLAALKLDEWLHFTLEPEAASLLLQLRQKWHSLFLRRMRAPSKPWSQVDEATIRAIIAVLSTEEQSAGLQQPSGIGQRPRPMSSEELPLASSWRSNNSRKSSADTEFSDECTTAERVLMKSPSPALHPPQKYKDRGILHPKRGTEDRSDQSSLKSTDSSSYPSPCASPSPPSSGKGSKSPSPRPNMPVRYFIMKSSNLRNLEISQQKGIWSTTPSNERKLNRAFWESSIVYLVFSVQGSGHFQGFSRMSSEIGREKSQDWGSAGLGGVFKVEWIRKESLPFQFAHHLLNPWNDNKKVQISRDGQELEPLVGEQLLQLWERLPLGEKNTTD
Put shortly: as §1

In a further series the target is T3, CDKN2AIP (UniProt Q9NXV6).
T3 sequence: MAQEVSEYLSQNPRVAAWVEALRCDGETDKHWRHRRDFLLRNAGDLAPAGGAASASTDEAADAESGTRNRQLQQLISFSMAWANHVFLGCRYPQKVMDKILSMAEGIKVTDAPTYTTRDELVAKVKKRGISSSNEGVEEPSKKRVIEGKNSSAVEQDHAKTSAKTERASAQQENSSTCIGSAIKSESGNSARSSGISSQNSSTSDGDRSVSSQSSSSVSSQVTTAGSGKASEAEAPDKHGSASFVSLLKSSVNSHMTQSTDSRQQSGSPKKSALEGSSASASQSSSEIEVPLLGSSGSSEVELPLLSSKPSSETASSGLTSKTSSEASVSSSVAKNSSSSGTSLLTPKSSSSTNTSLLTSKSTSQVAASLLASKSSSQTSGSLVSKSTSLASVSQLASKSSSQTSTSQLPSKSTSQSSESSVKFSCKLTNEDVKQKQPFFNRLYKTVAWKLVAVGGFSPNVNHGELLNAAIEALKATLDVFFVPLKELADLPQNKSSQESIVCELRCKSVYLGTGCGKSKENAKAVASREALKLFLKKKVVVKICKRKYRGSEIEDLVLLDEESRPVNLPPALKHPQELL
Put shortly:
as §1

Another series concerns the target SKIV2L (UniProt Q15477). Put shortly:
as §1

The target in the next series is MRPS7 (UniProt Q9Y2R9). Put shortly: as §1

Chain of CPSF4 (O95639 whole entry): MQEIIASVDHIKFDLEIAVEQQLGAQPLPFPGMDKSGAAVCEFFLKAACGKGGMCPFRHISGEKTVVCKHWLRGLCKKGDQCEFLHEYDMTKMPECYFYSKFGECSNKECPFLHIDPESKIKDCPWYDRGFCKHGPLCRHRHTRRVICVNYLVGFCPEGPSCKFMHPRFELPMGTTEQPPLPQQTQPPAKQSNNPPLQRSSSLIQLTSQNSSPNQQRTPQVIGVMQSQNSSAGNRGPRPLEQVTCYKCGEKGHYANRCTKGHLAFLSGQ
Chain of SKIV2L (Q15477 whole entry): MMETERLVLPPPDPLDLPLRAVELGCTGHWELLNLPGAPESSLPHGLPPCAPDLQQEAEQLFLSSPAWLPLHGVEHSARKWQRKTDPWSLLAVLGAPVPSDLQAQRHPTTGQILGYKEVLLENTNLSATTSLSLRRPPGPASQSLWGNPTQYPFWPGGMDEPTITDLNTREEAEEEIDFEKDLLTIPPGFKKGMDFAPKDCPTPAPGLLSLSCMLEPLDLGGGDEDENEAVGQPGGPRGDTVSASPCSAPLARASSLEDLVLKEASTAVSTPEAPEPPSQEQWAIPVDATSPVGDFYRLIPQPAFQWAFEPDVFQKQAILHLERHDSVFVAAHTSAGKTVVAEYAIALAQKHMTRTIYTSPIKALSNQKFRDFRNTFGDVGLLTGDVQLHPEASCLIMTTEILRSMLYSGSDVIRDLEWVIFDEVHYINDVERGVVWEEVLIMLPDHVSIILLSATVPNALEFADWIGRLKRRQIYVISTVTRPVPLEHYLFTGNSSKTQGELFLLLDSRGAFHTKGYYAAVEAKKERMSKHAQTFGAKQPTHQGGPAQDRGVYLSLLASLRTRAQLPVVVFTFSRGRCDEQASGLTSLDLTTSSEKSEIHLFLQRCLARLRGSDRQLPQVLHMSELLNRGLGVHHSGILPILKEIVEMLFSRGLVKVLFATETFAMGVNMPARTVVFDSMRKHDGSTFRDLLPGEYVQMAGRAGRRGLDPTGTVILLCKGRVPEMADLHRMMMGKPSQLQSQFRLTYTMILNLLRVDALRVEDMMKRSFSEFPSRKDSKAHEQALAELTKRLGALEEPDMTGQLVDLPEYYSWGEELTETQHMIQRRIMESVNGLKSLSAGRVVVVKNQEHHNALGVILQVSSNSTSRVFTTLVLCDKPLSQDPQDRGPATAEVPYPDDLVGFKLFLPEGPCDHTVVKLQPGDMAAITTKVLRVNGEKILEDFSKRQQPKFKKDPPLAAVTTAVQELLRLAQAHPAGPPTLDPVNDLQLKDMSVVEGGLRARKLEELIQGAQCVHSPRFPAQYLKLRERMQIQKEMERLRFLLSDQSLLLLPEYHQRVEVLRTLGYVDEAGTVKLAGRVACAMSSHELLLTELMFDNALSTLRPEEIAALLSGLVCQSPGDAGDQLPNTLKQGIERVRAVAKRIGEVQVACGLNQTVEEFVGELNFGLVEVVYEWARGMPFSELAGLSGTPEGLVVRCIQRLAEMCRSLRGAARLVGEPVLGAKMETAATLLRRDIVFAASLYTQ

For AAUAAA, the results for the EC50 in the series with ZRANB2 and in the series with CPSF4 were 1900 nM and 55.5 nM, respectively.

As for CUGUCCU, the figures for the concentration giving a half-maximal response (EC50) with MRPL53 and with YTHDC2 were 103 nM and 2240 nM, respectively.

Take UAUUUAU: the EC50 came to 419 nM in the series with CDKN2AIP, 1950 nM with SKIV2L and 84.2 nM with MRPS7.

Values taken from the supplement of paper PMC6379048.
